Experimental data: patent US6699677B1, “Tethered ligands and methods of use” (ChemoCentryx, Inc., priority 1999, dated 2004)

T1: CCR4 (Homo sapiens, UniProt P51679)
T1 sequence (P51679 1-360): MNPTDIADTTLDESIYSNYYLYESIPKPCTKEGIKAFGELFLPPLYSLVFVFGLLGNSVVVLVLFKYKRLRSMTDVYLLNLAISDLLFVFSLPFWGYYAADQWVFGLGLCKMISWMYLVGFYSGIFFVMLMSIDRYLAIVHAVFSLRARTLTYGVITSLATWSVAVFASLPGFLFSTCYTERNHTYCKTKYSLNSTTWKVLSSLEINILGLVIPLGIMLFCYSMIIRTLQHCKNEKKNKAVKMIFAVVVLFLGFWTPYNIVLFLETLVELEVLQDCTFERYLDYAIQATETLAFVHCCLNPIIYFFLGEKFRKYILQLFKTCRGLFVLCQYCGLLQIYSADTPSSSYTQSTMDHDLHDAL

T2: CCR10 (Homo sapiens, UniProt Q9NPB9)
T2 construct: Full length CCR10 expression constructs were made in pIRESpuro expression vector; expressed in transfected cells; HEK293-CCR10)
T2 sequence (Q9NPB9 1-350): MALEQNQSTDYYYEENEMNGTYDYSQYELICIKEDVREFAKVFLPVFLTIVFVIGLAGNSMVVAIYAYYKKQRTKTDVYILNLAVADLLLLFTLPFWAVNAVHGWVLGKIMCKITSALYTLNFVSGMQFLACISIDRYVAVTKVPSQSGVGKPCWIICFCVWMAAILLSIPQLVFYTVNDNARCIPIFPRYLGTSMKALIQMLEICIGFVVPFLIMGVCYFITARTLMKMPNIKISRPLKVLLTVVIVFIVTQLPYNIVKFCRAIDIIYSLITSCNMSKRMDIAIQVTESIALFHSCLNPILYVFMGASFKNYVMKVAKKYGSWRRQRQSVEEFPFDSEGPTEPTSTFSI


Tests used:
CCR4 [1] = biological target: T1, CCR4; test: Calcium mobilization in INDO-1AM loaded CEM cells expressing CCR4; type: cell-based; parameters: endogenous in cells; host or cells: CEM cells; details: fusion protein supernatant added at 80 sec
Description: Briefly, CEM cells that express CCR4 were placed in a fluorimeter and monitored over time for changes in fluorescence. […] TARC-Fractalkine or MDC-Fractalkine (fusion protein supernatants), or control supernatants, were added at the following times: experiment 1, control supernatant added at 50 sec, TARK-FRAC at 80 sec; experiment 2, control supernatant at 50 sec and MDC-FRAC at 80 sec.

CCR4 [2] = biological target: T1, CCR4; test: Displacement of radiolabeled MDC or TARC tracer from CEM cells expressing CCR4; type: binding; parameters: endogenous in cells; host or cells: CEM cells; details: supernatants with soluble stalkokine, compared with control supernatant
Description: Briefly, CEM cells we added to radiolabeled chemokine “tracer” (MDC or TARC) in the presence of competitor molecules such as supernatants expressing the soluble MDC-FRAC (a stalkokine with a fractalkine stalk and an MDC ligand domain) or TARC-FRAC (a stalkokine with a fractalkine stalk and an TARC ligand domain). The cells and tracer were incubated and harvested by filtration, capturing the bound tracer. The material was then counted. “Total” is the amount of tracer bound with no competition.

CCR4 [3] = biological target: T1, CCR4; test: Binding of CCR4-NSO cells to immobilized stalkokines and competition by soluble chemokine; parameters: host or cells: mouse myeloma NSO
Description: Following, the liquid in each well was aspirated and washed once for approximately 5 minutes with 500 ul of PBS. The wells were then “blocked” (blocked for any additional protein binding sites) with the addition of 250 ul of blocking solution (2% fetal bovine serum, 0.5% BSA in PBS) and incubation for 1 hour at room temp (e.g., 20° C.). […] Each slide contained two wells with control supernatant (from mock-transfected cells) and two wells with the positive control SDF1a (which binds the ubiquitous chemokine receptor CXCR4). The four other wells were for experimental samples. The supernatants were incubated for one hour at room temperature (typically 20° C.), then incubated for an additional hour at 37° C. The supernatants were aspirated off, and each well was washed once for 5 minutes with 500 ul of PBS. The slide was then ready for addition of cells for assay.
Several types of cells were used in binding experiments to stalkokines of the invention, including transfected mouse myeloma NSO cells containing a mammalian expression vector driving expression of the receptor of interest, e.g., CCR1, CCR4, CCR6, CCR7, CCR8, CXCR4, CMV US28 (gift of R&D Systems (Minneapolis, Minn.)).
In an experiment, CCR4-NSO cells were used to test binding competition. Harvested CCR4 NSO cells were resuspended at 2×10^6 cells per ml in PBS. […] 250 ul of cells that were not pre-treated with soluble chemokine were added to additional wells. The slides were incubated for 1.5 hours at room temp, then the supernatant gently aspirated. The chamber portion of the slide was removed (using the apparatus provided by the supplier) and the slide was washed by gentle immersion into a petri dish containing PBS to a depth of 1cm. This was repeated 3 times in total, and the slide was immersed in a 1% glutaraldehyde solution (in PBS) for 5 minutes at room temperature. The cells were inspected and enumerated visually by microscopy.

CXCR4 = biological target: T3, CXCR4 (Homo sapiens, UniProt P61073); test: Binding of CXCR4-NSO cells to immobilized stalkokines
T3 construct: host or cells: mouse myeloma NSO
Description: In one set of experiments, five 8 well chamber slides (Lab-Tek II, Nalge Nunc International, Rochester, N.Y.), 250 ul of 10 ug/ml anti-his antibody (R&D Systems, Minneapolis, Minn.) in PBS was added to each well and incubated at room temperature overnight (typically 16 hours). Following, the liquid in each well was aspirated and washed once for approximately 5 minutes with 500 ul of PBS. The wells were then “blocked” (blocked for any additional protein binding sites) with the addition of 250 ul of blocking solution (2% fetal bovine serum, 0.5% BSA in PBS) and incubation for 1 hour at room temp (e.g., 20° C.). The liquid in each well was aspirated and 250 ul of supernatant containing the chemokine-stalk-immobilization domain fusion proteins (SDF1a-FRAC, finetaxin-FRAC, CCL27-FRAC, 1309-FRAC, MIP3a-FRAC, ELC-FRAC, SLC-FRAC, MDC-FRAC, TARC-FRAC, or BRAK-FRAC) or the control supernatant was added to two wells. Each slide contained two wells with control supernatant (from mock-transfected cells) and two wells with the positive control SDF1a (which binds the ubiquitous chemokine receptor CXCR4). The four other wells were for experimental samples. The supernatants were incubated for one hour at room temperature (typically 20° C.), then incubated for an additional hour at 37° C. […] The slide was then ready for addition of cells for assay. […]

CCR10 [4] = biological target: T2, CCR10; test: Spectrum of ligands that bind to CCR10; type: binding
Excerpt: Furthermore ELC-SK mediated adhesion was abolished in the presence of soluble native ELC as a competitor (FIG. 3A, top row). […] Moreover, radiolabeled ELC was used in a traditional homologous competition assay in the presence of increasing concentrations of unlabeled ELC. […] Taken together, the stalkokine-based adhesion and radiolabeled ligand binding/homologous competition assays indicate that CCR10 is a new chemokine receptor that bound a novel compliment of chemokines.

CCR10 [5] = biological target: T2, CCR10; test: Adhesion of HEK293-CCR10 cells to immobilized stalkokines, with or without soluble chemokine competitors; type: binding; details: stalkokine immobilized via anti-His anchoring antibody, 500,000 cells, 1.5 hrs at RT
Description: To determine ligand binding to CCR10, HEK293-CCR10 cells were used to interrogate chemokine “stalkokines” (SK), i.e., molecules in which discrete chemokine domains were engineered to be tethered to the end of an extended stalk structure. Stalkokines were interrogated using 8-well chamber slides coated first with anti-His anchoring antibody (10 ug/ml in PBS overnight at RT), which were washed and ‘blocked’ (2% FBS/0.5% BSA in PBS); treated with 250 ul of HEK293 cell stalkokine supernatants (1 hr at 37C), and incubated with 500,000 HEK293-CCR10 transfectants (1.5 hrs at RT). Inhibition of adhesion by competition with soluble chemokines was done by incubating cells with 5-10 ug/ml of recombinant chemokines. In all cases, nonadherent cells were removed by washing in PBS; remaining adherent cells were fixed with 1% glutaraldehyde, photoimaged and counted. As a primary screen, this adhesion would reveal putative receptor-ligand interactions.

T3 sequence (P61073 whole entry): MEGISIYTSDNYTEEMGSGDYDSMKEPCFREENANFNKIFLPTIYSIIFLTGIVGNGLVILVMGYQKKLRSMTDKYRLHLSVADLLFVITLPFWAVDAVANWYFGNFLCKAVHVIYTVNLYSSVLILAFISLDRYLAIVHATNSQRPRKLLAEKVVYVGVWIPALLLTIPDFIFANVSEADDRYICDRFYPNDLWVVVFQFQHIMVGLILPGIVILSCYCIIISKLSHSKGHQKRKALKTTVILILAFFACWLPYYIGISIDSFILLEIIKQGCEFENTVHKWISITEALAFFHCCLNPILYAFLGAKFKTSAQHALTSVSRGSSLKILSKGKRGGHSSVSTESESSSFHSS

Row | Molecule | Calcium influx / calcium signaling (CCR4 [1]) | Inhibition of binding of MDC or TARC tracer to CEM cells (CCR4 [2]) | Binding to Stalkokine form (CCR4 [3]) | Binding to Stalkokine form (CXCR4) | also measured
1 | TARC-FRAC: a stalkokine with a fractalkine stalk and an TARC ligand domain (protein, left off: small tags and cut ends, a stalkokine with a fractalkine stalk and an TARC ligand domain) ARGTNVGRECCLEYFKGAIPLRKLKTWYQTSEDCSRDAIVFVTVQGRAICSDPNNKRVKNAVKYLQSLERSEFGGTFEKQIGEVKPRTTPAAGGMDESVVLEPEATGESSSLEPTPSSQEAQRALGTSPELPTGVTGSSGTRLPPTPKAQDGGPVGTELFRVPPVSTAATWQSSAPHQPGPSLWAEAKTSEAPSTQDPSTQASTASSPAPEENAPSEGQRVWGQGQSPRPENSLEREEMGPVPAHTDAFQDWGPGSMAHVSVVPVSSEGTPSREPVASGSWTPKAEEPIHATMDPQRLGVLITPVPDAQA | modest influx | significant further decrease | bound |  | Calcium influx / calcium signaling (CCR4 [1]; listed as TARC-Stalkokine): induction of calcium signaling
2 | vMIPII: viral chemokine (protein) GDTLGASWHRPDKCCLGYQKRPLPQVLLSSWYPTSQLCSKPGVIFLTKRGRQVCADKSKDWVKKLMQQLPVTAR |  |  |  | yes | Affinity of binding to CCR10 (CCR10 [4]): lower affinity
3 | MDC-FRAC: a stalkokine with a fractalkine stalk and an MDC ligand domain (protein, left off: small tags and cut ends, a stalkokine with a fractalkine stalk and an MDC ligand domain) GPYGANMEDSVCCRDYVRYRLPLRVVKHFYWTSDSCPRPGVVLLTFRDKEICADPRVPWVKMILNKLSQEFGGTFEKQIGEVKPRTTPAAGGMDESVVLEPEATGESSSLEPTPSSQEAQRALGTSPELPTGVTGSSGTRLPPTPKAQDGGPVGTELFRVPPVSTAATWQSSAPHQPGPSLWAEAKTSEAPSTQDPSTQASTASSPAPEENAPSEGQRVWGQGQSPRPENSLEREEMGPVPAHTDAFQDWGPGSMAHVSVVPVSSEGTPSREPVASGSWTPKAEEPIHATMDPQRLGVLITPVPDAQA | modest influx | significant further decrease | bound |  | Calcium influx / calcium signaling (CCR4 [1]; listed as MDC-Stalkokine): induction of calcium signaling
4 | ELC-SK: tethered ligand fusion protein: ELC chemokine domain, human fractalkine mucin stalk, myc/poly-histidine immobilization domain (protein, left off: small tags and cut ends) GTNDAEDCCLSVTQKPIPGYIVRNFHYLLIKDGCRVPAVVFTTLRGRQLCAPPDQPWVERIIQRLQRTSAKMKRRSSEFGGTFEKQIGEVKPRTTPAAGGMDESVVLEPEATGESSSLEPTPSSQEAQRALGTSPELPTGVTGSSGTRLPPTPKAQDGGPVGTELFRVPPVSTAATWQSSAPHQPGPSLWAEAKTSEAPSTQDPSTQASTASSPAPEENAPSEGQRVWGQGQSPRPENSLEREEMGPVPAHTDAFQDWGPGSMAHVSVVPVSSEGTPSREPVASGSWTPKAEEPIHATMDPQRLGVLITPVPDAQA |  |  |  |  | Adhesion of HEK293-CCR10 cells to immobilized stalkokine (CCR10 [5]): adhered very well; Adhesion of HEK293-CCR10 cells to immobilized stalkokine (CCR10 [5]; listed as ELC-stalkokine (SK)): strong adhesion
5 | MDC: recombinant human chemokine, natural ligand for CCR4 (protein) GPYGANMEDSVCCRDYVRYRLPLRVVKHFYWTSDSCPRPGVVLLTFRDKEICADPRVPWVKMILNKLSQ |  | maximal level of competition | yes, yes |  | 
6 | FK: fractalkine, natural membrane protein with a chemokine domain tethered on a long mucin-like stalk (protein) QHHGVTKCNITCSKMTSKIPVALLIHYQQNQASCGKRAIILETRQHRLFCADPKEQWVKDAMQHLDRQAAALTRNGGTFEKQIGEVKPRTTPAAGGMDESVVLEPEATGESSSLEPTPSSQEAQRALGTSPELPTGVTGSSGTRLPPTPKAQDGGPVGTELFRVPPVSTAATWQSSAPHQPGPSLWAEAKTSEAPSTQDPSTQASTASSPAPEENAPSEGQRVWGQGQSPRPENSLEREEMGPVPAHTDAFQDWGPGSMAHVSVVPVSSEGTPSREPVASGSWTPKAEEPIHATMDPQRLGVLITPVPDAQA |  |  |  | yes | 
